Tests used:
[1] = biological target: TSHR (thyroid stimulating hormone receptor), full length human (human) (UniProt P16473); test: negative control; competitor ^125I-K1-70 IgG, TSHR coated tubes; 1 µg/mL in HBD
[2] = biological target: TSH receptor (TSHR), full length human, coated on tubes (human) (UniProt P16473); test: inhibition of 125I-TSH binding to TSHR coated tubes; 10 µg/mL, diluted in assay buffer
[3] = biological target: TSHR (thyroid stimulating hormone receptor), full length human (human) (UniProt P16473); test: negative control; competitor ^125I-K1-70 IgG, TSHR coated tubes; 1 µg/mL in assay buffer
[4] = biological target: TSH receptor (TSHR) coated on tubes (human) (UniProt P16473); test: inhibition of 125I-K1-70 IgG binding to TSHR coated tubes; negative control 100 µg/mL in assay buffer
[5] = biological target: TSH receptor (TSHR) coated on tubes (human) (UniProt P16473); test: inhibition of 125I-K1-70 IgG binding to TSHR coated tubes; negative control 10 µg/mL in HBD serum pool
[6] = biological target: TSH receptor (TSHR) coated on tubes (human) (UniProt P16473); test: inhibition of 125I-K1-70 IgG binding to TSHR coated tubes; negative control 0.01 µg/mL in HBD serum pool
[7] = biological target: human thyroid stimulating hormone receptor (TSHR), full length (human) (UniProt P16473); test: 125I-K1-70 Fab (competitor) binding to TSHR coated tubes; negative control MAb 0.01 µg/mL in assay buffer
[8] = biological target: TSHR (full length) coated on tubes (human) (UniProt P16473); test: inhibition of 125I-K1-18 Fab (competitor) binding to TSHR coated tubes; negative control 10 µg/mL in HBD serum
[9] = biological target: human TSH receptor (full length) coated on ELISA plate wells (human) (UniProt P16473); test: TSH-biotin binding inhibition ELISA, TSHR coated wells; 0.1 µg/mL in assay buffer + 100 µg/mL 5B3 IgG; negative control MAb
[10] = biological target: TSH receptor (full length human TSHR) (human) (UniProt P16473); test: competition ELISA: inhibition of M22 Fab-peroxidase (competitor) binding to TSHR coated wells; negative control at 1 µg/mL diluted in assay buffer
[11] = biological target: TSH receptor (full length human TSHR) (human) (UniProt P16473); test: competition ELISA: inhibition of M22 Fab-peroxidase (competitor) binding to TSHR coated wells; negative control at 10 µg/mL diluted in assay buffer
[12] = biological target: TSH receptor (full length human TSHR) (human) (UniProt P16473); test: competition ELISA: inhibition of M22 Fab-peroxidase (competitor) binding to TSHR coated wells; negative control at 1 µg/mL diluted in HBD serum pool
[13] = biological target: thyroid stimulating hormone receptor (TSHR), full length human TSHR (human) (UniProt P16473); test: TSH-biotin competition ELISA, TSHR coated wells; 1 µg/mL in HBD serum
[14] = biological target: TSH receptor (TSHR), full length human, coated on tubes (human) (UniProt P16473); test: inhibition of 125I-K1-18 IgG binding to TSHR coated tubes; competitor 125I-K1-18 IgG; sample at 0.01 µg/mL in HBD serum
[15] = biological target: TSH receptor (TSHR), full length human, coated on tubes (human) (UniProt P16473); test: inhibition of 125I-K1-18 IgG binding to TSHR coated tubes; competitor 125I-K1-18 IgG; sample at 0.1 µg/mL in assay buffer
[16] = biological target: TSH receptor (full length human TSHR) coated on tubes (human) (UniProt P16473); test: 125I-TSH binding inhibition, TSHR coated tubes; 10 ng/mL, in assay buffer
[17] = biological target: TSH receptor (full length human TSHR) coated on tubes (human) (UniProt P16473); test: 125I-TSH binding inhibition read against NIBSC 90/672; 30 ng/mL, in assay buffer
[18] = biological target: human thyroid stimulating hormone receptor (TSHR), full length (human) (UniProt P16473); test: 125I-K1-18 Fab competition, TSHR coated tubes; 1 µg/mL in HBD
[19] = biological target: human thyroid stimulating hormone receptor (TSHR), full length (human) (UniProt P16473); test: 125I-K1-18 Fab competition, TSHR coated tubes; 1 µg/mL in assay buffer
[20] = biological target: human thyroid stimulating hormone receptor (TSHR), full length (human) (UniProt P16473); test: 125I-K1-18 Fab competition, TSHR coated tubes; 10 µg/mL in assay buffer
[21] = biological target: human TSH receptor (full length) coated on ELISA plate wells (human) (UniProt P16473); test: TSH-biotin binding inhibition ELISA, TSHR coated wells; 1 µg/mL in assay buffer
[22] = biological target: thyroid stimulating hormone receptor (TSHR), full length, coated on tubes (human) (UniProt P16473); test: inhibition of 125I-TSH binding, TSHR coated tubes; antibody 1 µg/mL in HBD serum pool
[23] = biological target: thyroid stimulating hormone receptor (full length human TSHR) (human) (UniProt P16473); test: ELISA, inhibition of TSH-biotin binding to TSHR coated wells; 1 µg/mL, diluted in assay buffer
[24] = biological target: thyroid stimulating hormone receptor (full length human TSHR) (human) (UniProt P16473); test: ELISA, inhibition of TSH-biotin binding to TSHR coated wells; 0.01 µg/mL, diluted in HBD serum pool
[25] = biological target: thyroid stimulating hormone receptor (TSHR), full length, coated on tubes (human) (UniProt P16473); test: inhibition of 125I-TSH binding, TSHR coated tubes; antibody 0.01 µg/mL in assay buffer; mean of duplicate
[26] = biological target: TSH receptor (TSHR), full length human, coated on tubes (human) (UniProt P16473); test: inhibition of 125I-K1-18 IgG (competitor) binding to TSHR coated tubes; test sample at 100 µg/mL in assay buffer
[27] = biological target: TSH receptor (TSHR), full length human, coated on tubes (human) (UniProt P16473); test: inhibition of 125I-K1-18 IgG (competitor) binding to TSHR coated tubes; test sample at 0.1 µg/mL in HBD serum pool

In the case of 5B3 IgG (antibody), the Inhibition of binding (%) [1] is reported as -1.5%, the Inhibition of binding (%) [2] is reported as -5.7% and the Inhibition of binding (%) [3] is reported as 4.2%. The Inhibition of binding (%) [4] was 15.2%, the Inhibition of binding (%) [5] was -0.7% and the Inhibition of binding (%) [6] was 3.2%. It also gave an Inhibition of binding (%) [7] of -1.7%, an Inhibition of binding (%) [8] of -0.1% and a % inhibition of TSH-biotin binding [9] of -6.4%. The Inhibition of binding (%) [10] was 3.4%, the Inhibition of binding (%) [11] was 2.4% and the Inhibition of binding (%) [12] was 9.7%.

Work on 9D33 IgG (antibody) yielded an Inhibition of binding (%) [13] of 76%, an Inhibition of binding (%) [14] of 5.3% and an Inhibition of binding (%) [15] of 54.8%.

M22 IgG (antibody) was tested, and the Inhibition of binding (%) [16] was 26.4%, the units/L [17] was 8.6 units/L and the units/mg [17] was 287 units/mg.

B1: 5C9 IgG (antibody, from another filing, V domains shown)
VH: EVQLVESGGGLIQPGGSLRLSCAASGFTVSSNYMSWVRQAPGKGLEWVSVTYSGGSTSYADSVKGRFTISRDNSKNTLYLQMNSLRAEDTAVYYCARGGRYCSSISCYARSGCDYWGQGTLVTVSS
VL: AIQMTQSPSSLSASVGDRVTITCRASQSISNYLNWYQQKPGKAPKLLIYAASSLQSGVPSRFSGSGSGTDFTLTISSLQPEDFATYYCQQSYSSPSTTFGQGTKLEIK
B1 gave an Inhibition of binding (%) [18] of 23.2%, an Inhibition of binding (%) [19] of 52.5% and an Inhibition of binding (%) [20] of 63.8%. For the same molecule, the % inhibition of TSH-biotin binding [21] was 42.9%, the Inhibition of binding (%) [22] was 19.7% and the Inhibition of binding (%) [23] was 31.4%. For the same molecule, the Inhibition of binding (%) [24] was -2.6%, the Inhibition of binding (%) [25] was 15.9% and the Inhibition of binding (%) [26] was 91.3%. The Inhibition of binding (%) [27] was 21.3%.

— patent US20110300138A1 (published 2011)
